Patent US8026218
Where two headings read alike, the source gives them in different places.

What was measured:
[1] = target: δ opioid receptor of the mouse isolated vas deferens (mouse) (UniProt P32300); assay: cell-based or functional assay
[2] = target: human δ opioid receptor (human) (UniProt P41143); assay: cell-based or functional assay
[3] = target: rat µ opioid receptor (rat) (UniProt P33535); assay: cell-based or functional assay
[4] = target: human δ opioid receptor (human) (UniProt P41143); assay: competition vs [3H]DPDPE, hDOR cell membranes
[5] = target: human NK1 receptor (human) (UniProt P25103); assay: competition vs [3H]Substance P, hNK1 CHO cell membranes
human NK1 receptor (human), sequence (P25103 whole entry): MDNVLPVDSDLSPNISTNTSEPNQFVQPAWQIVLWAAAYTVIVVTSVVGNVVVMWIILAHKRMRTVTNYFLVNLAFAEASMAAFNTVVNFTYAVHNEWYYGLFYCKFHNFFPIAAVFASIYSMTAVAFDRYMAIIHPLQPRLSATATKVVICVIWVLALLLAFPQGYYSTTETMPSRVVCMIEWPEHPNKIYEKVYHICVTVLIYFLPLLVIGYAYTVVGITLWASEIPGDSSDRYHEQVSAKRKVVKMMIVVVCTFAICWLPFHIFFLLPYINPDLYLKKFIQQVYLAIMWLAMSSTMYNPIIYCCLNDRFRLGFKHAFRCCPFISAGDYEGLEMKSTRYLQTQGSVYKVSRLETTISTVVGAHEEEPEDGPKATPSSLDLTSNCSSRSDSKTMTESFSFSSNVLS

[6] = target: rat µ opioid receptor (rat) (UniProt P33535); assay: competition vs [3H]DAMGO, rMOR cell membranes
rat NK1 receptor (rat) [7] = target: rat NK1 receptor (rat) (UniProt P14600); assay: competition vs [3H]Substance P, rNK1 CHO cell membranes
rat NK1 receptor (rat), sequence (P14600 whole entry): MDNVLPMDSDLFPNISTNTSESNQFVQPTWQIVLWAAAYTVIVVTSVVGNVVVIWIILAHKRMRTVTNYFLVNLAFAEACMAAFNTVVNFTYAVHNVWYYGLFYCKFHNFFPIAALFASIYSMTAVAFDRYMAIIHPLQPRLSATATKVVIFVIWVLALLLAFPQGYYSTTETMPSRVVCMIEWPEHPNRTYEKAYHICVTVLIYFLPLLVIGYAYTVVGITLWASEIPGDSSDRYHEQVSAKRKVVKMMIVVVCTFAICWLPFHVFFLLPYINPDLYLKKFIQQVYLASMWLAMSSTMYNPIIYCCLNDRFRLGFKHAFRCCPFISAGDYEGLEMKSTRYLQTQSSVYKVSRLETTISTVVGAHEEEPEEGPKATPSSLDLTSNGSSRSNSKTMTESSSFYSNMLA

[8] = target: guinea pig NK1 receptor (guinea pig) (UniProt P30547); assay: cell-based or functional assay
guinea pig NK1 receptor (guinea pig), sequence (P30547 whole entry): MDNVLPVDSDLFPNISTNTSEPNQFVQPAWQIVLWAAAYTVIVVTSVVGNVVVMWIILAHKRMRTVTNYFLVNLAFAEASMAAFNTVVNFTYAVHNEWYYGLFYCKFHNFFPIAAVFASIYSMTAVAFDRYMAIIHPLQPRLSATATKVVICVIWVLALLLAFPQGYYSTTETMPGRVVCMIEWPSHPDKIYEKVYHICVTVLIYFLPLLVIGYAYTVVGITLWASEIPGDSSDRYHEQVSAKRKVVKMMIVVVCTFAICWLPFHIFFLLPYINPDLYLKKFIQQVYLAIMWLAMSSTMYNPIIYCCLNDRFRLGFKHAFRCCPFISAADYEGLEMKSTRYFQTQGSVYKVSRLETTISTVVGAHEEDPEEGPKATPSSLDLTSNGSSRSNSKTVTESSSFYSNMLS

[9] = target: µ opioid receptor of the guinea pig isolated ileum (guinea pig) (UniProt P97266); assay: cell-based or functional assay
µ opioid receptor of the guinea pig isolated ileum (guinea pig), sequence (P97266 whole entry): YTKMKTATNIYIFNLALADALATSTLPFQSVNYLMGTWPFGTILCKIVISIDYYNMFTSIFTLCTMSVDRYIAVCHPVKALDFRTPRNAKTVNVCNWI

[10] = target: human δ opioid receptor (human) (UniProt P41143); assay: radioligand competition vs [3H]DPDPE, membranes of hDOR cells
[11] = target: human NK1 receptor (human) (UniProt P25103); assay: radioligand competition vs [3H]substance P, membranes of hNK1 CHO cells
rat NK1 receptor (rat) [12] = target: rat NK1 receptor (rat) (UniProt P14600); assay: radioligand competition vs [3H]substance P, membranes of rNK1 CHO cells
[13] = target: rat µ opioid receptor (rat) (UniProt P33535); assay: radioligand competition vs [3H]DAMGO, membranes of rMOR cells
[14] = target: rat µ opioid receptor (rat) (UniProt P33535); assay: cell-based or functional assay; remark: listed apart in the source
[15] = target: rat µ opioid receptor (rat) (UniProt P33535); assay: radioligand saturation, rMOR membranes
[16] = target: human δ opioid receptor (human) (UniProt P41143); assay: radioligand saturation, hDOR membranes
[17] = target: human δ opioid receptor (human) (UniProt P41143); assay: radioligand saturation, hDOR cell membranes

δ opioid receptor of the mouse isolated vas deferens (mouse), sequence (P32300 whole entry, stated change not applied): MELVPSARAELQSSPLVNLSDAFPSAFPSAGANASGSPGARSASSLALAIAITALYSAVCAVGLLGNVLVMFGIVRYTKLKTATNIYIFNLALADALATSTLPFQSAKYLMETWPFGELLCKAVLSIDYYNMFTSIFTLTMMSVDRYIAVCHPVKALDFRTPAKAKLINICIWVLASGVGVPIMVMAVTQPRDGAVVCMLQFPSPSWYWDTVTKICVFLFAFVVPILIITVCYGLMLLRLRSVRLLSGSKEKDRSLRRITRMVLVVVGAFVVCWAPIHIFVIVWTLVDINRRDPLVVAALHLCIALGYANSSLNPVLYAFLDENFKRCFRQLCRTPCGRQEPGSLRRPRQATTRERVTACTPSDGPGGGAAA
rat µ opioid receptor (rat), sequence (P33535 whole entry): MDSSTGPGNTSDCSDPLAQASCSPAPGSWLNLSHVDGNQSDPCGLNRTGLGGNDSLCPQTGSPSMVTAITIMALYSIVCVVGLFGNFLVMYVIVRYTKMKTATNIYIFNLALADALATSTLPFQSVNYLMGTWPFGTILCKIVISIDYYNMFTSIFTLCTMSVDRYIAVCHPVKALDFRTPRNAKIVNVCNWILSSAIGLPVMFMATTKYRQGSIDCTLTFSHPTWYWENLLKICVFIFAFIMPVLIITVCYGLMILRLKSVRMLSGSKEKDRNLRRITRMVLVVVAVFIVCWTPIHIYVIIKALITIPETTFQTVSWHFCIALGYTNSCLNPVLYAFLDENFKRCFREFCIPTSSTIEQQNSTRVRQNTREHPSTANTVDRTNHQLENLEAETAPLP
human δ opioid receptor (human), sequence (P41143 whole entry, stated change not applied): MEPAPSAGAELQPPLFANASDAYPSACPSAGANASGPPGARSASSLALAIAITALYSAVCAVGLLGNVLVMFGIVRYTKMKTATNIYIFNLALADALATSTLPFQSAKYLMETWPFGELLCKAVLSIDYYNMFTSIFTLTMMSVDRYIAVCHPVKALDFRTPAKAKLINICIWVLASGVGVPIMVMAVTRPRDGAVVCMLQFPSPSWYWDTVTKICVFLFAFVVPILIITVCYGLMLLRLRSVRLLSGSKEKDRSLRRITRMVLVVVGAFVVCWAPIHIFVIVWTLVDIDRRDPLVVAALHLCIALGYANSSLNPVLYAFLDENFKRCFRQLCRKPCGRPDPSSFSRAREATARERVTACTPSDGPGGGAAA

Biphalin (peptide) gave an MVD (δ) IC50 [1] of 2.7 nM and an MVD (δ) opioid agonist IC50 [1] of 2.7 nM.

“DMT-D-Ala-Trp-O-3′,5′(CF3)2-Bzl (NP48) (peptide)” gave an MVD δ-agonist IC50 [1] of 408 nM.

Substance “DMT-D-Ala-Trp-O-3′,5′(CF3)2-Bzl (peptide)” has a GTP EC50 [2] of 11.5 nM, a GTP EC50 [3] of 1.6 nM and a Ki [4] of 0.8 nM. The Ki [5] was 0.016 nM, the Ki [6] was 0.3 nM and the Ki (rat NK1 receptor (rat) [7]) was 0.28 nM.

Work on “Tyr-D-Ala-Gly-pFPhe-O-3′,5′(CF3)2-Bzl (NP62) (peptide)” yielded an MVD δ-agonist IC50 [1] of 184 nM and a GPI SP-antagonist Ke [8] of 51.8 nM.

Substance “Tyr-D-Ala-Trp-O-3′,5′(CF3)2-Bzl (NP43) (peptide)” has an MVD δ-agonist IC50 [1] of 5.5 % at 1 µM, a GPI SP-antagonist Ke [8] of 49.4 nM and a GPI µ-agonist IC50 [9] of 3.3 % at 1 µM.

“Tyr-D-Ala-Trp-O-3′,5′(CF3)2-Bzl (peptide)” gave a GTP EC50 [2] of 90.9 nM, a GTP EC50 [3] of 168 nM and a Ki [4] of 100 nM. It also gave a Ki [5] of 0.004 nM, a Ki [6] of 178 nM and a Ki (rat NK1 receptor (rat) [7]) of 2.94 nM.

With “Tyr-Gly-Trp-O-3′,5′(CF3)2-Bzl (NP42) (peptide)” the GPI µ-agonist IC50 [9] was 2.6 % at 1 µM.

In the case of Tyr-Gly-Trp-O-3′,5′(CF3)2-Bzl (peptide), the Ki [5] is reported as 0.003 nM and the Ki (rat NK1 receptor (rat) [7]) is reported as 0.36 nM.

“TyrDAlaGlyPheMetCLeuLeuTrpOBn(CF3)2 (TY021) (peptide)” showed a Ki [10] of 5 nM, a Ki [11] of 0.066 nM and a GTP binding hDOR EC50 [2] of 0.26 nM. For the same substance, the GTP binding hDOR Emax [2] was 41.1%, the GTP binding rMOR EC50 [3] was 53.8 nM and the GTP binding rMOR Emax [3] was 51.4%. For the same substance, the Ki (rat NK1 receptor (rat) [12]) was 7.75 nM and the Ki [13] was 112 nM.

In the case of “Tyr[DCysGlyPheDCys]ProLeuTrpNHBn(CF3)2 (TY037) (peptide)”, the Ki [10] is reported as 7.8 nM, the GTP binding hDOR EC50 [2] is reported as 98.2 nM and the GTP binding hDOR Emax [2] is reported as 26%. For the same substance, the GTP binding rMOR EC50 [3] was 52.9 nM, the GTP binding rMOR Emax [3] was 8% and the Ki (rat NK1 receptor (rat) [12]) was 45.5 nM. The Ki [13] was 51.5 nM.

Substance “[3H]-[D-Ala2,NMePhe4,Gly5-ol]enkephalin (peptide)” has a [35S]GTP-γ-S binding LogEC50 [14] of -7.44, a [35S]GTP-γ-S binding EC50 [3] of 37 nM and a [35S]GTP-γ-S binding Emax [3] of 150%. It also gave a [35S]GTP-γ-S binding LogEC50 [3] of -7.4, a [35S]GTPγS binding EC50 [3] of 37 nM and a [35S]GTPγS binding Emax [3] of 150%. It also gave a [35S]GTPγS binding LogEC50 [3] of -7.4 and a Kd [15] of 0.5 nM.

For “[3H]-c[D-Pen2,D-Pen5]enkephalin (peptide)”, the [35S]GTP-γ-S binding EC50 [2] was 1.6 nM, the [35S]GTP-γ-S binding Emax [2] was 69% and the [35S]GTP-γ-S binding LogEC50 [2] was -8.8. For the same substance, the [35S]GTPγS binding EC50 [2] was 1.6 nM, the [35S]GTPγS binding Emax [2] was 69% and the [35S]GTPγS binding LogEC50 [2] was -8.8. It also gave a Kd [16] of 0.45 nM.

For c[D-Pen2,D-Pen5]enkephalin (peptide), the Kd [17] was 0.45 nM.
